Laboratory results taken from patent publication US6531296B1, “Nuclear tyrosine kinase Rak” (The University of North Carolina at Chapel Hill, priority 1995, dated 2003).
Changes are numbered by the printed parent chain. Each block holds one molecule with its values, some of them ahead of it.

What was measured:
CSK (p50csk) = experiment: In vitro kinase assay: phosphorylation of Rak carboxy-terminal peptides by CSK; format: biochemical; settings: relative to wild-type peptide for the mutants
Description: Peptide, Preparation for Phosphorylation. Initially, the OAg was tested for phosphorylation by CSK in an in vitro kinase reaction and was phosphorylated. To further assess which tyrosine was phosphorylated, each of the four tyrosines in the substrate peptide were mutated to phenylalanine by the double-stranded, site-directed mutagenesis method (Deng and Nickoloff. Site-directed mutagenesis of virtually any plasmid by eliminating a unique site. Anal. Biochem., 200:81-88 (1992)). The plasmid was denatured by heating to 100° C. for 5 min and then annealed to a mutagenic primer and a second primer converting an Af/AII site on the plasmid to a Bg/II site. The mutagenic primers for the four tyrosines were: Y45Uf, 5′-[…]-3′ (SEQ ID NO:9); Y163F, 5′-[…]-3′ (SEQ ID NO:10); Y490F, 5′-TGAAGAC-TTTTTTGAAACAG-3′ (SEQ ID NO:11); and Y497F, 5′-[…]-3′ (SEQ ID NO:12).
Purified μ50^csk and Enzyme Assays. p50^csk was produced in S/9 cells from a Baculovirus vector containing the full-length csk cDNA (Okada et al., J. Biol. Chem; 264:20886-20893(1989)), purified according to Murphy et al. (Mol. Cell. Biol., 13:5290-5300 (1993), and mixed with the different peptides of Rak. These peptides correspond to the last 62 amino acids of the kinase, containing four tyrosine residues (Y450, Y463, Y490, and […]), and mutant peptides where each of the four tyrosines was […]. The phosphorylation of the native peptide was compared to the that of the mutant peptides. For the in vitro kinase assay, different amounts of p50^csk were mixed with different amount of the peptides in a reaction buffer (10 mM HEPES (pH 7.4) 10 mM MnCl21. Four μg bovine serum albumin were added to the 20-μl mixture, and the reaction was initiated with the addition of AIP to 1 μm and 10 μCl of 1 γ-^32P)ATP (3000 Ci/mmol; Amersham). Tubes were incubated at 30° C. for 15 min, and the reaction was stopped by the addition of SDS-PAGE sample buffer. The samples were boiled and analyzed on 15% SDS-PAGE gels, which were fixed, stained, and exposed to film at […].
The Carboxy Terminus of Rak Is Phosphorylated by CSK. Since CSK phosphorylates the carboxy terminal tyrosines of several other Src-related kinases, the ability of CSK to phosphorylate a recombinant carboxy-terminal peptide of Rak was analyzed. […] Since this peptide contained four tyrosines at positions 450, 463, 490, and 497, each tyrosine was individually mutated to phenylalanine and then the peptides were assayed for phosphorylation by CSK. […] Indeed, this residue corresponds to the CSK phosphorylation site for the other Src family members with regard to its localization in regard to the kinase domain, although the sequence context of this tyrosine differs from that of the other Src-like kinases.

[1] = molecular target: T1, RbABC (Rb amino acids 379-928, A/B pocket and carboxy-terminus) (Homo sapiens, UniProt P06400); experiment: Rb in vitro binding assay, GST-RbABC; settings: for Rb binding of Rak deletion forms: Rb fusion protein not specified
T1 construct: Rb fusion proteins encoding amino acids 379-928 (RbABC); made in house; host or cells: pGEX-4T plasmid
T1 sequence (P06400 379-928): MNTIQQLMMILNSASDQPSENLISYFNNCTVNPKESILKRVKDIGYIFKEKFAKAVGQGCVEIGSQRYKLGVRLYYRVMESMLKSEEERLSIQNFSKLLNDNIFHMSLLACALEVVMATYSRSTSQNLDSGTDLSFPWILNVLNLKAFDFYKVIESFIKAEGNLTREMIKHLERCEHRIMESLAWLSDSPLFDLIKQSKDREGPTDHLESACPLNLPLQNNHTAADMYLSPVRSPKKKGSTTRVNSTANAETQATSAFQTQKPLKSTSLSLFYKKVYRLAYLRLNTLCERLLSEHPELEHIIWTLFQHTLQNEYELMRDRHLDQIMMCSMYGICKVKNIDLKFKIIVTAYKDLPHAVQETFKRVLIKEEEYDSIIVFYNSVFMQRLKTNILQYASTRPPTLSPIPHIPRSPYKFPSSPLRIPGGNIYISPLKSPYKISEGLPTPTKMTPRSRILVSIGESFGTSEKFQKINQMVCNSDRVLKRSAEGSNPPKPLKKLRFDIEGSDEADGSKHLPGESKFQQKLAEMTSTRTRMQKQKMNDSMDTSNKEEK
Description: (§1) Affinity Precipitations. DNA fragments encoding the amino terminal region of Rak were prepared using the polymerase chain reaction with Pyrococcus furiosus DNA polymerase (Stratagene), and cloned into the pGEX-4T plasmid (Pharmacia). Rb fusion proteins encoding amino acids 379-928 (RbABC, containing the A/B pocket region and the COOH-terminal domain) and 780-928 (RbC for COOH terminal domain only), were prepared similarly. The GST fusion proteins were induced and purified according to the manufacturer's instructions, and were analyzed by SDS-PAGE to ensure that an equal amount of protein was used for the affinity precipitation procedure.
The same procedure was followed for Rb in vitro binding assays, except that the Rb-GST fusion proteins were incubated in the in vitro translated forms of Rak in NP-40 buffer containing 0.5% fraction V bovine serum albumin (Boehringer Mannheim). After three washes with the same buffer, bound proteins were analyzed by SDS-PAGE and detected by autoradiography. Rak was in vitro translated using the TnT-coupled transcription/translation system (Promega) with 2 ug of the pAlt-Rak plasmid. The Rak (1-152) construct was prepared by digesting the pAlt-Rak plasmid with EcoRI to obtain the 5′ EcoRI fragment of Rak.
An in vitro binding reaction was then used to further identify the essential components for the Rak-Rb interaction. In vitro translated Rak was incubated with two Rb-GST fusion proteins, where one encoded amino acids 379-928, spanning the A/B pocket and carboxy-terminus (RbABC), while the other fusion protein encoded amino acids 780-928, and represented only the carboxy-terminus (RbC). […] As a control, the Src protein was in vitro translated and subjected to the same binding reaction, and no binding of Src to any portion of Rb was detected (data not shown).

[2] = molecular target: T2, RbC (Rb amino acids 780-928, carboxy-terminus) (Homo sapiens, UniProt P06400); experiment: Rb in vitro binding assay, GST-RbC; settings: in vitro translated protein
T2 construct: the other fusion protein encoded amino acids 780-928; made in house; host or cells: pGEX-4T plasmid
T2 sequence (P06400 780-928): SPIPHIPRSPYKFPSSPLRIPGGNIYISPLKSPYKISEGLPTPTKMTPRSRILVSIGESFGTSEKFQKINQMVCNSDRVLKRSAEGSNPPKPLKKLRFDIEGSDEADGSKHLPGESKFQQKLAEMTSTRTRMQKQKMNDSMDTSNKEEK
Description: as §1
The same procedure was followed for Rb in vitro binding assays, except that the Rb-GST fusion proteins were incubated in the in vitro translated forms of Rak in NP-40 buffer containing 0.5% fraction V bovine serum albumin (Boehringer Mannheim). After three washes with the same buffer, bound proteins were analyzed by SDS-PAGE and detected by autoradiography. […]
An in vitro binding reaction was then used to further identify the essential components for the Rak-Rb interaction. […] As a control, the Src protein was in vitro translated and subjected to the same binding reaction, and no binding of Src to any portion of Rb was detected (data not shown).

- phosphorylation by CSK (CSK (p50csk)): readily phosphorylated
- phosphorylation by CSK (CSK (p50csk); listed as OAg): phosphorylated
B1: wild-type peptide: hexahistidine fusion protein containing the 62 carboxy-terminal amino acids of Rak (protein, UniProt P42685 444-505, looked up, fragment)
chain: QMLAQNYRLPQPSNCPQQFYNIMLECWNAEPKERPTFETLRWKLEDYFETDSSYSDANNFIR
modifications: hexahistidine tag
notes: hexahistidine fusion protein containing the 62 carboxy-terminal amino acids of Rak

- phosphorylation by CSK (CSK (p50csk)): about one-half
B3: mutant at position 450: 62-amino-acid carboxy-terminal Rak peptide with tyrosine 450 mutated to phenylalanine (protein, UniProt P42685 444-505, looked up, variant Y450F)
chain: B1 chain with Y7F
modifications: C-terminal 62 residues His tag
notes: 62-amino-acid carboxy-terminal Rak peptide with tyrosine 450 mutated to phenylalanine

- phosphorylation by CSK (CSK (p50csk)): about one-half
B4: mutant at position 490: 62-amino-acid carboxy-terminal Rak peptide with tyrosine 490 mutated to phenylalanine (protein, UniProt P42685 444-505, looked up, variant Y490F)
chain: B1 chain with Y47F
modifications: C-terminal 62 residues His tag
notes: 62-amino-acid carboxy-terminal Rak peptide with tyrosine 490 mutated to phenylalanine

Second part, the molecule before the results:

B2: 497 mutant: 62-amino-acid carboxy-terminal Rak peptide with tyrosine 497 mutated to phenylalanine (protein, UniProt P42685 444-505, looked up, variant Y497F)
chain: B1 chain with Y54F
modifications: C-terminal 62 residues His tag
notes: 62-amino-acid carboxy-terminal Rak peptide with tyrosine 497 mutated to phenylalanine
- phosphorylation by CSK (CSK (p50csk)): barely detectable

B5: Rak (amino acids 1-152): in vitro translated amino-terminal fragment of Rak with unique amino-terminal region and SH3 domain (protein, UniProt P42685 1-152, looked up, fragment)
chain: MSNICQRLWEYLEPYLPCLSTEADKSTVIENPGALCSPQSQRHGHYFVALFDYQARTAEDLSFRAGDKLQVLDTLHEGWWFARHLEKRRDGSSQQLQGYIPSNYVAEDRSLQAEPWFFGAIGRSDAEKQLLYSENKTGSFLIRESESQKGEF
- less efficiency of binding to RbABC fusion protein ([1]; compared with full-length Rak): approximately 30%
- binding to RbC protein [2]: no longer detectable

B6: full-length Rak: in vitro translated full-length Rak protein (SEQ ID NO:2) (protein)
chain: MSNICQRLWEYLEPYLPCLSTEADKSTVIENPGALCSPQSQRHGHYFVALFDYHAPTAEELSFRAGDKLQVLDTLHEGWWFARHLEKRRDGSSQQLQGYIPSNYVAEDRSLQAEAWFFGAIRRSDAEKQLLYSENKTGSFLIRESESQKGEFSLSVLDGAVVKHYRIKRLDEGGFFLTRRRIFSTLNEFVSHYTKTSDGLCVKLGKPCLKIQVPAPFDLSYKTVDQWEIDRNSIQLLKRLGSGQFGEVWEGLWNNTTPVAVKTLKPGSMDPNDFLREAQIMKNLRHPKLIQLYAVCTLEDPIYIITELMRHGSLQEYLQNDTGSKIHLTQQVDMAAQVASGMAYLESRNYIHRDLAARNVLVGEHNIYKVADFGLARVFKVDNEDIYESRHEIKLPVKWTAPEAIRSNKFSIKSDVWSFGILLYEIITYGKMPYSGMTGAQVIQMLAQNYRLPQPSNCPQQFYNIMLECWNAEPKERPTFETLRWKLEDYFETDSSYSDANNFIR
- binding to RbABC fusion protein ([1]; in vitro translated protein, SDS-PAGE and autoradiography): bound efficiently
- binding to RbC protein, fold less than to RbABC [2]: approximately 5 fold

B7: Rak with amino acids 1-46 deleted: Rak lacking the unique N-terminal region (LPCLSTE sequence removed) (protein, UniProt P42685 47-505, looked up, fragment)
chain: FVALFDYQARTAEDLSFRAGDKLQVLDTLHEGWWFARHLEKRRDGSSQQLQGYIPSNYVAEDRSLQAEPWFFGAIGRSDAEKQLLYSENKTGSFLIRESESQKGEFSLSVLDGAVVKHYRIKRLDEGGFFLTRRRIFSTLNEFVSHYTKTSDGLCVKLGKPCLKIQVPAPFDLSYKTVDQWEIDRNSIQLLKRLGSGQFGEVWEGLWNNTTPVAVKTLKPGSMDPNDFLREAQIMKNLRHPKLIQLYAVCTLEDPIYIITELMRHGSLQEYLQNDTGSKIHLTQQVDMAAQVASGMAYLESRNYIHRDLAARNVLVGEHNIYKVADFGLARVFKVDNEDIYESRHEIKLPVKWTAPEAIRSNKFSIKSDVWSFGILLYEIITYGKMPYSGMTGAQVIQMLAQNYRLPQPSNCPQQFYNIMLECWNAEPKERPTFETLRWKLEDYFETDSSYSDANNFIR
- Rb binding of Rak deletion forms [1]: no change in Rb binding

B8: Rak with amino acids 1-110 deleted: Rak lacking the unique N-terminal region and the SH3 domain (protein, UniProt P42685 111-505, looked up, fragment)
chain: LQAEPWFFGAIGRSDAEKQLLYSENKTGSFLIRESESQKGEFSLSVLDGAVVKHYRIKRLDEGGFFLTRRRIFSTLNEFVSHYTKTSDGLCVKLGKPCLKIQVPAPFDLSYKTVDQWEIDRNSIQLLKRLGSGQFGEVWEGLWNNTTPVAVKTLKPGSMDPNDFLREAQIMKNLRHPKLIQLYAVCTLEDPIYIITELMRHGSLQEYLQNDTGSKIHLTQQVDMAAQVASGMAYLESRNYIHRDLAARNVLVGEHNIYKVADFGLARVFKVDNEDIYESRHEIKLPVKWTAPEAIRSNKFSIKSDVWSFGILLYEIITYGKMPYSGMTGAQVIQMLAQNYRLPQPSNCPQQFYNIMLECWNAEPKERPTFETLRWKLEDYFETDSSYSDANNFIR
- Rb binding of Rak deletion forms [1]: minimally detectable
